# Laboratory results from paper PMC1931592.
# Key:
# [1] = biological target: T1, substituted (S209A) active caspase-3 generated by coexpression of HA-p17 and HA-p12 (S209A) subunits (human) (UniProt P42574)
# T1 sequence 1: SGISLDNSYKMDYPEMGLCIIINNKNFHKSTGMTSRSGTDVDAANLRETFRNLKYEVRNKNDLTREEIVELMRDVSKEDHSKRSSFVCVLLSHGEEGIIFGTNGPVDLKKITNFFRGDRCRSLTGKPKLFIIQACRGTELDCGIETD
# T1 sequence 2: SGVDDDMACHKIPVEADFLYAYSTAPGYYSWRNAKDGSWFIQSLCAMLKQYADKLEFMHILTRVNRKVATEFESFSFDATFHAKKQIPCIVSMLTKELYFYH
# [2] = biological target: Recombinant human caspase-9 (active) (human) (UniProt P55211); assay: enzyme inhibition assay (fluorogenic substrate cleavage); one unit of active recombinant human caspase incubated with various concentrations of peptide inhibitor in 100 mM NaCl, 50 mM HEPES, 10 mM DTT, 1 mM EDTA, 10% glycerol, 0.1% CHAPS, pH 7.4, 37°C, 30 min; then 200 μM substrate (Ac-DEVD-MCA for caspases-3 and -7, Ac-IETD-MCA for caspase-8, Ac-LEHD-MCA for caspase-9); apparent Ki = IC50/(1+[S]/Km)
# Chain of Recombinant human caspase-9 (active) (human) (P55211 whole entry): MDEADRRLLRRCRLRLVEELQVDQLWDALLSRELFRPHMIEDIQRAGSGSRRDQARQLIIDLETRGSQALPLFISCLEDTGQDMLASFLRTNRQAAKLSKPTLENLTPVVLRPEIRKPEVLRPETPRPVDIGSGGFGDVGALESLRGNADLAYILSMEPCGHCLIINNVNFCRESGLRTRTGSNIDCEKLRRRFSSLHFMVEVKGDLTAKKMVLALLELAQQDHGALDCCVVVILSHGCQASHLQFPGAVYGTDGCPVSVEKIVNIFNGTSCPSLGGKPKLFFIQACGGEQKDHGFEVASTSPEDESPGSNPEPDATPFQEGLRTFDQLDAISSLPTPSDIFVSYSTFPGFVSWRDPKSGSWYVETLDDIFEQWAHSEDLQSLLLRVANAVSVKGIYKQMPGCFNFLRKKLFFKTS
"cleavage of Ac-DNLD-MCA by in vitro translated S209A active caspase-3, against the wild type (% loss of cleavage activity) [1]",Ki [2],Substance
> 60,–,Ac-DNLD-MCA (peptide)
–,1.35 nM,Ac-DEVD-CHO (peptide)
–,> 200 nM,Ac-DNLD-CHO (peptide)
